Source: patent publication US20230090114A1, “METHODS FOR PROMOTING WEIGHT LOSS” (89BIO LTD., priority 2020, published 2023)

Key:
Format in all cases: in vivo, CD-1 mice
[1] = Food intake and meal pattern (daily and METABOpack sessions)
Description: During the METABOpack™ sessions, animals were housed singly in the Physiocage System (Panlab/Harvard apparatus), which was composed of: • 8 physiocages (LE1301) • 8 Air tight lids for mouse (LE1303) • 8 grid floors for mouse (LE1317) • 8 Feeding bottles for mouse (LE1306) • 2 Air supply and switching units for up to 4 home cages each (LE4004FL) • 1 O2/CO2 analyzer (LE405) • 1 acquisition software suite, METABOLISM (V3.0).
From T1 to T28, vehicle and 89BIO100 (at the 3 different doses) were administrated by subcutaneous (SC) injection three times a week, while the treatment with liraglutide was administrated by subcutaneous route, twice a day, every day. It was important to notice that the first dosing was done just before the […] (at 9:00 AM) and the second dosing was done 8 hours after the first one (at 5:00 PM). Throughout the treatment period, FI and BW were daily measured.
In the present project, a METABOpack™ session was consisted of a 12-hour period of acclimation followed by a 48-hour period of recording of the respiratory exchanges, FI, water intake (WI) and locomotor activity of each animal.
Following this acclimation period, the parameters cited above were automatically and simultaneously recorded for 48 hours, except for body weight that was measured manually every day.
The METABOpack™ sessions were conducted at the start (T1-2), the middle (T14-15) and the end (T26-27) of the treatment period.
Meal pattern analysis was performed on high-resolution recordings of food intake obtained during the METABOpack™ sessions. The Physiocage system allowed recording food intake with an accuracy of 1 measure per second and a precision of 0.02 g. The physiocages were equipped with a system allowing to precisely collect the spillage of the animals, by the mean of a platform located under the food dispenser. This platform and the spillages it contains, were permanently weighted by the system and the values added to the total weight of the food dispenser. With this system, the progressive decrease in the food dispenser net weight only reflected the food consumption of the animals. The analysis was performed by plotting data every minute. Each weight variation of the feeding container (transition from one stable value to another) was considered as a “bout”, with each bout separated from each other bout by an “inter-bout interval”. A meal consisted of at least one bout, with each meal separated from each other meal by a “post-meal interval”. For the purpose of this study, a meal was defined as any feeding episode causing a change in food weight of 0.02 g and separated by at least 5 min from any subsequent episode. Based on this criterion, the following parameters were calculated for each experimental group: […]

[2] = Semi-fasted blood glucose (4 hours of fasting)
[3] = Body composition (minispec Analyzer, TD-NMR)
Method: For body composition analyses, a minispec Analyzer (LF90II, Bruker, Germany) was used. The LF90II provides an accurate measure of the whole-body lean mass, fat mass and free fluid mass in living and vigil animals.
Body composition was measured using a minispec Analyzer (LF90II, Bruker, Germany) one (1) day before treatment start on habituation day 7 (H7) and on treatment day 13 (T13) and treatment day 25 (T25) of Treatment days. Briefly, each mouse was placed in a red clear plastic tube sealed by a plunger. Then, the tube was inserted into the minispec Analyzer for measurement of body composition (˜ 2 min/measurement). Once the measurement completed, the mouse was removed from the plastic tube and immediately replaced into its cage. The tube and the plunger were washed and dried between each mouse. As a reminder, the Minispec analyser allows fast and precise measurements of fat tissue (g) (adipose tissue), lean tissue (g) (mainly muscles) and free fluid content (g). It should be noted that each measurement was performed just prior to a METABOpack™ session in order to normalize the respiratory exchanges-related parameters of each mouse by its lean mass (see METABOpack™ session section).
General Methods: Naive CD-1 mice were treated subcutaneously (SC) for 4 weeks at ambient temperature with BIO89-100 at doses of 0, 0.3, 1.0 and 3.0 mg/kg (3qW×4 weeks) or with liraglutide at 0.2 mg/kg (BID×4 W; SC). BW and FC were measured daily throughout the treatment period. To investigate the impact of BIO89-100 on energy expenditure, the respiratory exchanges (VO2 and VCO2) were recorded during 3 distinct sessions of METABOpack™, a multiparametric approach allowing an automated and simultaneous recording of FC, water intake, respiratory exchanges and spontaneous activity. Meal pattern analysis was conducted on the high-resolution recordings of FC. The body composition (fat, lean and fluid masses) was analyzed 3 times during the study by the mean of Time-Domain Nuclear Magnetic Resonance (TD-NMR).

[4] = T1, WD and NP, three doses, vs Liraglutide
[5] = T2, WD, three doses, vs Liraglutide
[6] = T2, WD, three doses, vs vehicle
[7] = first meal on T14, 3 mg/kg, vs 1 mg/kg
[8] = first meal on T14, 3 mg/kg, vs vehicle
[9] = BIO89-100-treated CD-1 mice, overall
[10] = T13, three doses, vs Liraglutide

B1: Mutant FGF21-GalNAc-SA-PEG-20 kDa (conjugate)
chain: MHPIPDSSPLLQFGGQVRQRYLYTDDAQQTEAHLEIREDGTVGGAADQSPESLLQLKALKPGVIQILGVKTSRFLCQRPDGALYGSLHFDPEACSFRELLLEDGYNVYQSEAHGLPLHLPGNKSPHRDPAPRGPARFLPLPGLPPALPEPPGILAPQPPDVGSSDPLSMVGPTQGASPSYAS
[1]; BIO89-100-treated mice
  mean meal size: no change
[1]; BIO89-100-treated mice, related to increased FC
  mean meal number: increase in mean meal number
[1]; T1, 0.3 mg/kg, vs vehicle, at 5 h, 6 h, 15-24 h
  cumulative food intake: increased
[1]; T1, 1 mg/kg, vs vehicle, at 1 h, 3 h, 18-24 h
  cumulative food intake: increased
[1]; T1, 3 mg/kg, vs vehicle, 10-12 h and 14-17 h
  cumulative food intake: increased
[1]; T1, DP, 0.3 mg/kg, vs Liraglutide
  mean meal size: increased
[1]; T1, DP, 3 mg/kg, vs 0.3 and 1 mg/kg
  mean meal size: decreased
[1]; T1, DP, 3 mg/kg, vs vehicle
  mean meal size: reduced
[1]; T1, DP, between groups
  mean food intake: no significant difference
[1]; T1, NP and WD, between the three 89BIO-100 groups
  mean food intake: No significant difference
[1]; T1, NP and WD, whatever the dose, vs Liraglutide
  mean food intake: increase in mean food intake
[1]; T1, NP, 3 mg/kg, vs vehicle
  mean food intake: higher
[1]; [4]
  mean meal number: increased
  mean satiety ratio: decreased
[1]; T1, WD, 0.3 and 1 mg/kg, vs vehicle
  mean food intake: increased
[1]; T1, between the three 89BIO-100 groups
  cumulative food intake: no significant difference
[1]; T1, three doses, vs Liraglutide, 5-24 h
  cumulative food intake: increase in cumulative food intake
[1]; T2, 0.3 mg/kg, vs Liraglutide, at 5 h, 6 h, 10-24 h
  cumulative food intake: increased
[1]; T2, 1 mg/kg, vs Liraglutide, 4-24 h
  cumulative food intake: increased
[1]; T2, 3 mg/kg, vs 0.3 mg/kg, at 1 h and 2 h only
  cumulative food intake: slightly increased
[1]; T2, 3 mg/kg, vs Liraglutide, over 24 h except at 4 h
  cumulative food intake: increased
[1]; T2, 3 mg/kg, vs vehicle, over 24 h except at 4 h
  cumulative food intake: increased
[1]; T2, 0.3 and 1 mg/kg, vs vehicle, 13-24 h
  cumulative food intake: increase in cumulative food intake
[1]; T2, 1 vs 3 mg/kg and 0.3 vs 1 mg/kg
  cumulative food intake: no significant difference
[1]; T2, DP, between groups
  mean food intake: no significant difference
[1]; T2, NP and WD, between the three 89BIO-100 groups
  mean food intake: No significant difference
[1]; T2, NP and WD, whatever the dose, vs Liraglutide
  mean food intake: increase in mean food intake
[1]; T2, NP, 3 mg/kg, vs vehicle
  mean food intake: higher
[1]; T2, WD, 0.3 and 3 mg/kg, vs vehicle
  mean meal number: increased
[1]; [5]
  mean meal number: increased
  mean post-meal interval: decreased
  satiety ratio: decreased
[1]; [6]
  mean food intake: increased
  mean post-meal interval: shorter
[1]; T15, WD only, whatever the dose, vs Liraglutide
  mean food intake: increased
[1]; T15, WD only, whatever the dose, vs vehicle
  mean food intake: increased
[1]; T27, 3 mg/kg, vs vehicle, 0.3 and 1 mg/kg groups
  mean meal duration: significant increase in mean meal duration
[1]; first meal on T14, 0.3 mg/kg, vs vehicle
  mean post-meal interval: reduction in mean post-meal interval
[1]; first meal on T14, 1 mg/kg, vs 0.3 mg/kg
  mean satiety ratio: higher
[1]; first meal on T14, 1 mg/kg, vs Liraglutide
  mean post-meal interval: increase in mean post-meal interval
[1]; [7]
  mean post-meal interval: reduction
  mean satiety ratio: reduction
[1]; [8]
  mean post-meal interval: decrease
  mean satiety ratio: decrease
[1]; first meal on T15, 1 mg/kg, vs Liraglutide
  mean post-meal interval: increase in mean post-meal interval
[1]; first meal on T15, 3 mg/kg, vs 1 mg/kg
  mean post-meal interval: lower
[1]; first meal on T15, 3 mg/kg, vs vehicle
  mean post-meal interval: decrease in mean post-meal interval
[1]; first meal on T15, three doses, vs vehicle
  mean first meal latency: reduced
[1]; first meal on T26, 3 mg/kg, vs Liraglutide
  mean first meal latency: increase in mean first meal latency
[1]; first meal on T26, 0.3 and 1 mg/kg, vs vehicle
  mean first meal latency: increase in mean first meal latency
[1]; naive CD-1 mice, 0.3-3.0 mg/kg SC 3qW x 4 weeks, up to
  increase in FC: up to +94%
[1]; summary, significantly increased on T1, T2 and T15
  food intake: increased
[2]; T3 and T16, between 89BIO-treated groups
  blood glucose levels: no significant difference
[2]; T3 and T16, whatever the dose, vs Liraglutide
  blood glucose levels: higher blood glucose levels
[2]; T3 and T16, whatever the dose, vs vehicle
  blood glucose levels: did not alter
[2]; T28, 3 mg/kg, vs 0.3 and 1 mg/kg
  blood glucose levels: higher blood glucose levels
[2]; T28, 3 mg/kg, vs vehicle
  blood glucose levels: significant increase in blood glucose levels
[2]; T29 (so in the source), 0.3 and 3 mg/kg, vs Liraglutide
  blood glucose levels: increased
[2]; wild-type CD-1 mice, in contrast to Liraglutide (summary)
  hypoglycemic action: did not have a hypoglycemic action
[3]; [9]
  fat mass: marked decrease in fat mass
  lean masses and body fluid: without affecting
[3]; T13, 3 mg/kg, vs 0.3 mg/kg
  fat mass (g): significantly decreased
  fluid mass (g): significantly decreased
[3]; T13, 3 mg/kg, vs 0.3 and 1 mg/kg
  lean mass (g): reduction in lean mass
[3]; T13, 3 mg/kg, vs vehicle
  fluid mass (g): significantly decreased
  lean mass (g): significantly decreased
[3]; T13, 1 and 3 mg/kg, vs vehicle
  fat mass (g): reduction in fat mass
[3]; [10]
  fat mass (g): No significant difference
  fluid mass (g): No significant difference
  lean mass (g): No significant difference
[3]; T25, 1 and 3 mg/kg, vs vehicle
  fat mass (g): reduction in fat mass
[3]; T25, three doses, vs Liraglutide
  fat mass (g): No significant difference
[3]; T25 minus H7, 1 and 3 mg/kg, vs vehicle and Liraglutide
  delta fat mass (g): lower
